Reference: paper PMC314469, “Protein Interaction Networks by Proteome Peptide Scanning” (PLoS Biology, 2004)

T1: Yhr016c SH3 (YSC84_YEAST), P32793
T1 chain: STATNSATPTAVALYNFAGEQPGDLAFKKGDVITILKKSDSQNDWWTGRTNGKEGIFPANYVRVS

T2: Boi1 SH3 (BOI1_YEAST), P38041
T2 chain: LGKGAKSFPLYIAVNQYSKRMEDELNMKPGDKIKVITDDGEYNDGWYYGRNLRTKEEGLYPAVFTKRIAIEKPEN

T3: Boi2 SH3 (BOI2_YEAST), P39969
T3 chain: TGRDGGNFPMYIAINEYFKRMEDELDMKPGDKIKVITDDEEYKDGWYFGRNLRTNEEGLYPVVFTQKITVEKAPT

T4: Rvs167 SH3 (RV167_YEAST), P39743
T4 chain: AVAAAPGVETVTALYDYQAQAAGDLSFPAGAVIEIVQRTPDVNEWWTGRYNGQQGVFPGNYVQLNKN

T5: Yfr024 SH3 (LSB3_YEAST), P43603
T5 chain: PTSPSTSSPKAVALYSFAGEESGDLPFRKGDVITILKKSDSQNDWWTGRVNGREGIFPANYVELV


Key:
Test in all cases: SPOT array
[1] = molecular target: T1, Yhr016c SH3 (YSC84_YEAST), P32793
[2] = molecular target: T2, Boi1 SH3 (BOI1_YEAST), P38041
[3] = molecular target: T3, Boi2 SH3 (BOI2_YEAST), P39969
[4] = molecular target: T4, Rvs167 SH3 (RV167_YEAST), P39743
[5] = molecular target: T5, Yfr024 SH3 (LSB3_YEAST), P43603

Row | normalised SPOT signal, Boehringer light units (BLU); mean over the file's lines of this peptide [1] | normalised SPOT signal, Boehringer light units (BLU); mean over the file's lines of this peptide [2] | normalised SPOT signal, Boehringer light units (BLU); mean over the file's lines of this peptide [3] | normalised SPOT signal, Boehringer light units (BLU); mean over the file's lines of this peptide [4] | normalised SPOT signal, Boehringer light units (BLU); mean over the file's lines of this peptide [5] | Binder
1 | 1780 | 8730 | 99.2 | 245 | 13700 | ILTPDFPERRRLMK [YLR233C 283-296]
2 | 115 | 118 | 46.9 | 32.7 | 116 | ILYPDIPGKNYFLT [YOL087C 29-42]
3 | 6.2 | 119 | 22 | 29.9 | 1070 | KELPEFPIKKYHKR [YMR266W 741-754]
4 | 130 | 90.8 | 48.8 | 17.6 | 108 | ISNPSSPAKTKRDI [YMR137C 188-201]
5 | 282 | 92.5 | 68.5 | 100 | 293 | ILSPGYPNKSFNNK [YGL073W 653-666]
6 | 36800 | 150 | 106 | 13700 | 48600 | ITLPRRPAKKIQLG [YBR122C 41-54]
7 | 250 | 327 | 192 | 35 | 1120 | IQHPFLPRKIPIIT [YGR094W 408-421]
8 | 0 | 51.3 | 3.7 | 21.7 | 0 | KDHPYDPEKDSVLK [YGR020C 97-110]
9 | 226 | 275 | 23.9 | 0 | 4970 | ISTPEVPKKKIKTG [YIL010W 28-41]
10 | 213 | 97.5 | 50.2 | 85 | 1580 | IPTPSKPLKKRKKR [YCL027W 390-403]
11 | 10.6 | 73 | 33.9 | 25.5 | 16 | KDYPLSPPKLTFTP [YMR022W 62-75]
12 | 35500 | 258 | 222 | 1540 | 30900 | IMPPPKPFRHGLDS [YBR108W 517-530]
13 | 185 | 60.8 | 79.1 | 22.7 | 1120 | ISRPVQPFKVGSIG [YPR185W 368-381]
14 | 93200 | 181 | 35.5 | 31300 | 39300 | ITSPPLPPRADSIE [YMR192W 122-135]
15 | 683 | 5520 | 1450 | 474 | 3280 | IYTPYIPFRNSRTW [YLR240W 75-88]
16 | 207 | 86.7 | 166 | 41.2 | 94.5 | IRYPVTPNKASLDR [YOR384W 132-145]
17 | 1650 | 1120 | 142 | 650 | 7710 | IVNPFIPRRPYSNV [YDR409W 859-872]
18 | 2810 | 208 | 63.5 | 44.4 | 284 | KALPKEPKKLLPNS [YIR010W 422-435]
19 | 60.1 | 168 | 23.8 | 10.8 | 326 | KERPKPPNKGDVGR [YOR233W 333-346]
20 | 126 | 152 | 22.2 | 62.6 | 2480 | INQPSTPKKLKRKS [YDR501W 316-329]
21 | 189 | 110 | 34.4 | 26.6 | 335 | ISTPPPPPKMAIPA [YFR019W 390-403]
22 | 99.2 | 119 | 74.7 | 39.9 | 43.8 | KDAPIEPPKYMGMG [YOR346W 673-686]
